Data on one substance can be found in publication PMC8511952.

pKd: −log10 of the molar value.

What all share (assay): fluorescence anisotropy
Holding throughout (details): unmodified in vitro transcript; FA: 5 nM labeled tRNA, 25 mM Tris-HCl pH 8, 50 mM NaCl, 1 mM MgCl2, room temperature, 30 min
On the technique in general: Polarisation of emitted light reports the rotation of a fluorescent probe.

Data set [1] has as its system MBP-ERS2.5W P14R (Homo sapiens).
For data set [2], the system named is MBP-ERSRC E205G (Homo sapiens).
Data set [3] relates to MBP-ERS2.5W E205G (Homo sapiens).

For tRNAGlu(TTC), the results for the negative-log Kd (pKd) in data set [1], in data set [2] and in data set [3] were 7.03, 6.56 and 7.27, respectively.

One may read the pKd as the Kd on a negative log10 scale, so that one unit is a factor of ten. Low values mean a high Kd, high ones a low Kd.
